This note sets out measurements from publication PMC6519459 (Science (New York, N.Y.), 2018).

This test deals with Rpn11 (deubiquitinase of the lid, 3XFLAG-tagged, in the 26S holoenzyme) (S. cerevisiae, UniProt P43588 1-306). The experiment in a line: cryo-EM structure.

B1: ubiquitin (S. cerevisiae), the proximal, substrate-attached moiety of the polyubiquitin chain (natural protein)
chain: not shown
modifications: C terminus joined to the substrate lysine by an isopeptide bond; part of a K63-linked chain
Turning to B1, the binding result is given as “binds”.
